Test results taken from the supplement of paper PMC12636428.

System: Saccharomyces cerevisiae
Assay: transcriptional activation domain activity (GFP:mCherry ratio, weighted mean of sorted bins, harmonized to initial dataset scale) (arbitrary fluorescence ratio units); higher = stronger transcriptional activation
Conditions: beta-estradiol 1 µM; induction time 4 h
In short: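 In diploid yeast carrying a GFP reporter, barcoded protein tiles fused to an estradiol-inducible synthetic transcription factor were integrated at the URA3 locus. Cultures diluted 1:5 into SC with 1 uM beta-estradiol were kept at 30 °C for 4 hours, then sorted by GFP:mCherry ratio into 8 bins before barcode sequencing. Tiles with under 50 reads were excluded. The activation activity reported here is the read-weighted mean of bin median fluorescence, averaged across barcodes and linearly rescaled to the initial dataset.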

Going from “MGDCIKAHVFLLTFFYLYIHTHIFLFLFFIFLPFLLFSASSIYILFSFLFFPA” to “CVFLSILCLFIHLLLIVSLLLFFCHCLFFSVPITLVCFSMTIHLTPKIFILLF”, the “transcriptional activation domain activity” value rises from 32300 to 52700.

Compared with “MGFLFLLCVLVVWVFFRAWFFCFLFFLFLFLVLLFRYLFIYFLWSWYGGGSVG”, “KFQERMMVLKEIKLISLGDVRKITYSRMGYTDWKIVVLGRMWNLRFFVATGWD” is higher in “transcriptional activation domain activity” value: 48000 for the first, 64400 for the second.

Going from “MLIVSRAGFLAFLLCYLHFCSVVVHVFSLPIGQPVTGYGNGNSVNPRSPIVPS” to “PGLVGVFFIFSSPFSGFCFCFCFCLFELIFFFFFFFYYFLSRIGVLTRLSAGF”, the “transcriptional activation domain activity” value falls from 52100 to 45800.

Compared with “EMAVACISVLILIGYNTIILYVYPLYPTRSPLRLSETYINHLLSNFLWWFIMF”, “ALYFMVIFTSHIIYTFTLILGRPIVQVIPALYGLLSFLADSDLLFILPLCRMG” is lower in “transcriptional activation domain activity” value: 59100 for the first, 55000 for the second.

Going from “KLGLGPTYGIMLALLVSHGIVCCFKTSILARLNVYYVILNLGTLIALSVALLV” to “RPAAVLARQRERERARDARARAVRGAAPVAAAVAVRRVARHVCVACACAAAAA”, the “transcriptional activation domain activity” value rises from 50600 to 60400.

First: VNGDLFEADGCTIQWLLDNSHGLIFAVAYPRILTLTYVPALLQTIKTLFLSLF
Second: DSSEEDSEDEKPKAVQVKAIAKASSSSDSDDSSSEDDAPSKSVVAAAKKVSPS
The “transcriptional activation domain activity” value of the first is higher: 44000 for the first, 22200 for the second.

First: KIAAGAALATAAGVGLHHLRERQRSQSRSSSSERSGRSRSRHRLRHAAELGAA
Second: FFLKVYLLNPLHMTRFADLLYQGAILNRVFQPYESHLQYLLQWMCDYNLYGCA
The “transcriptional activation domain activity” value of the first is lower: 64000 for the first, 72900 for the second.

Going from “KPLGRQELQRFVALLHSHLETQILEYMHTRRKLSDVVLFLRRTLATCLLLYGC” to “NASPAAVVATTATATPERAVSAAAGDNNASTLTKRGRGRPRKAAKHTQAQTQA”, the “transcriptional activation domain activity” value falls from 38100 to 36500.

Going from “LNDDDIEKILQPNDIFTTDRTDASTTSSTAIEDIINPSLDPQSAASPVPSSSF” to “MKQHEYFHLGINLFCPPFFILKSYKEAILSLLLAFKILEIWTFFFIFPLFFLF”, the “transcriptional activation domain activity” value falls from 81400 to 47800.

Going from “MYGNLTYTEWSRYLADMLSMQKLLFVSVEANCRERILLLRISGRCPQLCPLWA” to “ILLGLLVLVLLYANVVLIIYHEPTFRRPLDMAFIHAPIRLFFILPFGVLFWYS”, the “transcriptional activation domain activity” value rises from 47200 to 63100.

Going from “ISCLGLTGWAGRFGSLYYIISMGGCSLSLGAMIAHVELKDSANCWWWFRYGFW” to “WKKTIQNKIKDSLTLSSKEKELLHLIEHGAEQTTENSNLFYDIFEEIIDSLPS”, the “transcriptional activation domain activity” value rises from 77400 to 112000.

First: MNGGNGFGFWFGVWFWLGIYILSLFFFFFSFSFLLLCVFVSFHSLVFFFFFFS
Second: MILWNWILEFHSQTSFTLLLFILFHFIFFAYVPLLTSCYSHLFSFSFSTVSFI
The “transcriptional activation domain activity” value of the first is higher: 53300 for the first, 46900 for the second.

Going from “MARLHIGQLCSRSFFYALLVLSTWSSKLVYLWPHLTSSLPPLLIVLYIPTFLL” to “MYCMRYFVPLFLLPFPDSPPIFVILFLISFFLHQKPCIYCTLLLFALFSSTCF”, the “transcriptional activation domain activity” value falls from 72900 to 48600.

First: SIYLCTHGTFFVVVTPIYFDYPCCGNPLVLFSSTLGMIIHFILFFFCLPCFFL
Second: PDEDEVVENAEKPKRRRRAKPTEEEQNEEQQNEEDAVENAGKKKRGKRTKPTE
The “transcriptional activation domain activity” value of the first is higher: 63100 for the first, 39900 for the second.

Compared with “KEEETKPEEAAATEATPEATTEPAAEGAEAPKEEAKTDAAAETKKEDRPKSPG”, “ILNVTVRLNFLTFVLQYLMDTDYLSYYFTPLVSFWFLAIWIIMYAGHTWNKIP” is higher in “transcriptional activation domain activity” value: 20500 for the first, 67300 for the second.

Going from “TTTLTGRPPSTFSGPETSNGPPTGSLPSKFVHDLMSNSPNVSSISMFPDWSMG” to “GGVSRIRQGERQGAGAGGAEGKSRKGAAAGRGKGGEQGGERGGSREGKGGGAG”, the “transcriptional activation domain activity” value rises from 21600 to 37500.

Going from “MLAWIYGVFFSRSIMYCPLILLITCALDFHFFYFSYLFLWGLFRLRGYIYHGW” to “EQLCMPIRRNDMRRRVELVRRCLLAALPSLPFWNEVCLWSTLNVFMSLLQDFF”, the “transcriptional activation domain activity” value rises from 52000 to 82700.

First: NILVRELQWCILCIRYTALGSLDHIRRLMTEIPAHHGLVRFLQRWVENWLEEQ
Second: LYKSYKHAFHDWIYRLYYYLYHCLVELGLSSAAVDIFRACLPSVKMGNIALTY
The “transcriptional activation domain activity” value of the first is lower: 37400 for the first, 63000 for the second.

Going from “RCPAARLASSAPSAPPTPASASRTCPRPPRPSPRRTSSKSCSTRSSSASATPR” to “MESAKKAVESVAEGIKKVAISGDQKPAAGGKKEGGKKEKKAAKAGAEVSSGPL”, the “transcriptional activation domain activity” value falls from 48000 to 34300.

Going from “SFLYWGSAGLFGIYVMSFQDSWWYQMEHLWVKYPHWMMRSELKVYYLLQFSYW” to “VEEQKPVAEEAPVRTKVEESKVQEAPVVEAKAEVAVTAAAAVAATAAVATAAV”, the “transcriptional activation domain activity” value rises from 21600 to 23500.

Going from “ISSISSIFPIFFPYFPSIYLIFFFIFFLPFFPSLPILLFLLFLLFLLFTLPLC” to “MVEGCLLHFQFSFPPFFFCFFFGHLGGFVNFCDSLIFKVLRALGLVMNVFTII”, the “transcriptional activation domain activity” value rises from 43700 to 70500.

First: RRVWLKYILYFVYGIVDWVYSTSLLKTMVWLRLPLYITVGKHVLVGLVGSMWV
Second: MILLPSLWLLSLVVIFPVCYFYIQKSFPFPSSLFCIVCPITIYIINILSSHVL
The “transcriptional activation domain activity” value of the first is higher: 50000 for the first, 33900 for the second.

Going from “MILYTWFFLRSPFFIFGILWVHGLVDRFLFCHLLVVYFCHLVNFFIHLKYANE” to “EQEEEEEEEEAKQPKKKRAKKWFEDESSGDEDTGDRKKKKRKARAAAAAAAAA”, the “transcriptional activation domain activity” value falls from 55700 to 41300.

Compared with “SIYCRLIQKSLFLMMVPIVQMPPLLLLLTCYFLRIFLSFFTRMYFVCFVLIFL”, “MRIAIYWRSFSVSTSFFFLPGYSFFLSNWVLFLVYFYDTGCGVCFLPFIMIFF” is higher in “transcriptional activation domain activity” value: 62400 for the first, 72700 for the second.

First: MILIVFSLLLSFPMFLERVLFFPLSFLFFFSPSFCLSYTQPSPLTMPFFSYFC
Second: RLEKQGWFAYIKEFRIFLPCLWPTGSIRGKLCLVVLILDLVINRFLRVLTPRQ
The “transcriptional activation domain activity” value of the first is higher: 68300 for the first, 59800 for the second.

Going from “HKRKRTGQEEVAKKPKESRRDKKTRRKRTEPDEEIASADTKERRRKSAGAEKS” to “GGGSEERGGRGRQEGGKDREAGGRERGSAGEREETEGGTGAEGGGGGERRQGE”, the “transcriptional activation domain activity” value rises from 20800 to 32300.

Going from “AYPTAAAVAPSTPKGKQRDVADELADLSVSKSSGSASKAKAKGSSPAAAKAAA” to “MRFPPLLFSFFLFFLFFFHLFLFLFHNLFFFYQSFFSSQPLFSFSLSFLSSSL”, the “transcriptional activation domain activity” value rises from 14900 to 42800.

Compared with “MYFCLDKLRRLACFLSLFFVSFFLFLCLTLFFALLFIISLSLLMYRCVLISLC”, “REGGRRGRGRARSRRQGGKREERGRTRKGRKGGENRPKREGGQGGGERARRRE” is higher in “transcriptional activation domain activity” value: 14000 for the first, 41300 for the second.

Compared with “GHFVRVGTTFFTMYAVNIFLSYARYIAAHFRISVIVISRLMLNLRNPVTFEST”, “MGLVYPCWLVFFGWFPSFLFLIFLSFIINFILVFSFLLFTFIPPLFSLLSVQF” is lower in “transcriptional activation domain activity” value: 60400 for the first, 37900 for the second.

Compared with “YEIKRRLQVCRAVLDEHINPYEFKHHTVYREALLKLMYFHCVISLRLVLSWTD”, “TLGFVGFVTTLKKVTLRRQFGLFCWIHISLFLIVVSSHFIVNSILEGLIWFWL” is higher in “transcriptional activation domain activity” value: 65300 for the first, 74700 for the second.

Going from “MNQTSCFFPPFFLFSFFFFLFFFPFPHSSSLPSFFFSFPSISPLFTSFSVSSL” to “MSNVQTELPFFPSCFVFFRGSFSFFCLVLFPLMAFIIELSILSFRCLFLLFLL”, the “transcriptional activation domain activity” value rises from 35200 to 61300.

First: KQGQEVEFKPERGVGDLVLKVTGRKRGYRAEERRSNSLRAQLVISHAVPLAVT
Second: EDEGEKDDDEEVKEVKEEGDNSGEEGKEGNGEEAKTEEDKPSEEQQQQAKEEA
The “transcriptional activation domain activity” value of the first is higher: 60200 for the first, less than 6570 for the second.

Compared with “KGFDSQCIEEWDPILFSAAEIWPTKGKPIALVEMDPIDFDFDVDNWDYVTRHL”, “EVLLLLMWMFWTKVVKIIPHFLRHPSDFPLVICQILFGYAHSFIKLWALVTFW” is lower in “transcriptional activation domain activity” value: 174000 for the first, 47200 for the second.

First: RWGGILNTHLCLLSTLVLCCTMLRFCINVIWTDTFVNWEMGWRTVCPWLLILL
Second: NNLNITGYEWISSELRDDALLSAVTLQGHHLGHTQPQEISLEENSNVVSGEEH
The “transcriptional activation domain activity” value of the first is lower: 44600 for the first, 59600 for the second.

Compared with “SYFIAAIINWEMSGFFLFSYEYVHKDLNLGCSNLYFTWYALFKEYGAPLVPMS”, “MHIVVTLCYFMTYLKPRRKDIYQRVQRWLPKIWTKFWQEIKRNDSFSYVFVDK” is higher in “transcriptional activation domain activity” value: 45100 for the first, 49500 for the second.

First: GEGAGGRDSTKTGAKAAGTGSTASKQPSNSASGGGQGKKKQPSATSAAGRKIA
Second: TFFLMRDIFIMEFLAHCDLLTIFVLAQTGEYARDLVKAFFSCNLRLLVVIFLG
The “transcriptional activation domain activity” value of the first is higher: 59000 for the first, 47700 for the second.

First: LGYQIVLLLPWTLFCYCWTLCVVIFSLVAMIIPPLGYVCTIFSVTSWRALARV
Second: WEPPLYDSVGNHNHAGTMESHPHTNIHEELKEFLSGDLIEAEDNAKLMFGDDN
The “transcriptional activation domain activity” value of the first is higher: 69800 for the first, 55300 for the second.

Compared with “SPSRNAERPSPAAPAAMERGPDGRPRLKLAPRSAPRTETPSPAPVAPPAPVHV”, “AAFSGEGDPWPGVAREIDENGENVGLAASRPAPAFLRVLTAVRVRVRIAFAFV” is higher in “transcriptional activation domain activity” value: 29400 for the first, 54500 for the second.

Going from “KSGRGGGRKGGRGGGKASARGGAGGARGGGGGGRGGGGAHTERGRTGKGAGAS” to “MLAYRSQQGWSEGDFLACRWFFSFFFPLFLPLSPPSFLCPFSFLFLFFLLLHL”, the “transcriptional activation domain activity” value rises from 21800 to 45300.

First: MTTDNTQKPTISLVEKVDLVFRLLAIAPLRHAIHFTRSLFIAYWRGLPLRLHI
Second: MIVRLSSVPVSGCSFVVIEALLDFLVLPLRHFNLFIAPTSFFSHLYVFFFFGR
The “transcriptional activation domain activity” value of the first is higher: 70300 for the first, 56700 for the second.

Going from “KEEAGEEAEEASPAPSEQKEEAPPSGQKPQANTGKKKDQASPAKKTGATAAAK” to “IRRHFNRKYHQCLLVVIVLGVYLAIGLNWGRFYLVCWVLLHFCIVILGPLYFL”, the “transcriptional activation domain activity” value rises from 13700 to 53400.

For “ACSCLSLITIFVGSGVVFQWFVSLIGSVLFQSWILILLLHFRFRYCWRKQGRP”, the “transcriptional activation domain activity” value was 49200.
